Reference: article PMC2646144

What was measured:
[1] = biological target: M3-protein heterologously expressed on the surface of S. gordonii GP1221 (SGO M3) (S. pyogenes | not stated); assay: radioligand binding; about 14 ng 125I-CIV or 125I-CB3 added to 250 µl bacterial suspension (S. gordonii expressing M3), room temperature 45 min, pellet-associated radioactivity as percentage of input
[2] = biological target: Collagen type IV from human placenta, full length (human) (UniProt P02462); assay: SPR; BIAcore 2000, CIV or CB3 immobilised on CM5 chip by amine coupling, M3-protein injected at 6.25-50 µg/ml, 10 mM HEPES, 100 mM NaCl, pH 7.4; apparent dissociation constants

“Collagen type IV from human placenta, full length (from UniProt P02462 28-1669; P08572 26-1712) (complex)” was tested, and the percent of the 125I-labeled ligand bound [1] was > 80%.

For “Cyanogen bromide fragment 3 (CB3) of collagen type IV (domain or fragment)”, the percent of the 125I-labeled ligand bound [1] was > 80%.

“GST-M3-protein (recombinant streptococcal M-protein type 3) (natural protein)” gave a Kd [2] of 5 nM.
